Source: publication PMC12278352, “Characterization of DnaB–DnaG Interaction in M. tuberculosis Using Small‐Angle X‐ray Scattering‐Based Dissociation Assay” (Chembiochem, 2025)

B1: M. tuberculosis DnaG without the zinc-binding domain (DnaGΔZBD, amino acids 115-639) (domain or fragment)
chain: SRLLAANAAAAAFYAQALQSDEAAPARQYLTERSFDAAAARKFGCGFAPSGWDSLTKHLQRKGFEFEELEAAGLSRQGRHGPMDRFHRRLLWPIRTSAGEVVGFGARRLFDDDAMEAKYVNTPETLLYKKSSVMFGIDLAKRDIAKGHQAVVVEGYTDVMAMHLAGVTTAVASCGTAFGGEHLAMLRRLMMDDSFFRGELIYVFDGDEAGRAAALKAFDGEQKLAGQSFVAVAPDGMDPCDLRLKCGDAALRDLVARRTPLFEFAIRAAIAEMDLDSAEGRVAALRRCVPMVGQIKDPTLRDEYARQLAGWVGWADVAQVIGRVRGEAKRTKHPRLGRLGSTTIARAAQRPTAGPPTELAVRPDPRDPTLWPQREALKSALQYPALAGPVFDALTVEGFTHPEYAAVRAAIDTAGGTSAGLSGAQWLDMVRQQTTSTVTSALISELGVEAIQVDDDKLPRYIAGVLARLQEVWLGRQIAEVKSKLQRMSPIEQGDEYHALFGDLVAMEAYRRSLLEQASGDDLTA

Tests used:
[1] = target: DnaG-binding domain of M. tuberculosis DnaB helicase (DnaBn, amino acids 23-166) (M. tuberculosis) (UniProt P9WMR3); test: cross-linking; 4 μM DnaGΔZBD with DnaBn (0-15.9 μM), 0.045% glutaraldehyde, 40 mM HEPES pH 7.5, 150 mM NaCl, 10 mM MgCl2, 0.1 mM EDTA, 1 mM DTT, 25 min at 25 °C; SDS-PAGE, Coomassie
[2] = target: the molecule itself; test: SAXS
[3] = target: the molecule itself; test: cross-linking; 4 μM DnaGΔZBD with 0.011-0.25% glutaraldehyde, 40 mM HEPES pH 7.5, 150 mM NaCl, 1 mM DTT, 0.1 mM EDTA, 0.5% DMSO, 30 min at 25 °C; SDS-PAGE, Coomassie
[4] = target: DnaG-binding domain of M. tuberculosis DnaB helicase (DnaBn, amino acids 23-166) (M. tuberculosis) (UniProt P9WMR3); test: SPR; DnaBn (2.4 μg) immobilised on a GLC chip by amine coupling; soluble DnaGΔZBD 0-600 nM, 30 μL/min; 25 °C; 40 mM HEPES pH 7.5, 200 mM NaCl, 0.1 mM EDTA, 1 mM DTT; steady-state fit; normalised to a BSA channel; three repeats

Row | Molecule | stoichiometry N [1] | stoichiometry N [2] | monomer:dimer ratio at 0.25% glutaraldehyde [3] | Kd [4]
1 | DnaG-binding domain of M. tuberculosis DnaB helicase (DnaBn, amino acids 23-166) (from UniProt P9WMR3 23-166) (domain or fragment) | 2 | – | – | –
2 | B1 | – | 2 | ~1.5 monomer per dimer | 210 nM
